Data on 6 molecules can be found in publication PMC11218721, “Receptor-Targeted Peptide Conjugates Based on Diphosphines Enable Preparation of ^99mTc and ^188Re Theranostic Agents for Prostate Cancer” (Journal of Nuclear Medicine, 2024).

Data set [1] can be described thus: Ex vivo biodistribution in SCID/beige mice bearing DU145-PSMA+ xenograft tumors. As to conditions: male, SCID/beige, mouse, in vivo, iv, total radioactivity. Here is the method: (§1) All animal experiments were ethically reviewed by an Animal Welfare and Ethical Review Board at either King’s College London or Barts Cancer Institute and were performed in accordance with the Animals (Scientific Procedures) Act 1986 U.K. Home Office regulations governing animal experimentation. Subcutaneous prostate cancer DU145-PSMA+ or DU145 xenografts were produced in SCID/beige mice (male, 7–12 wk old). Subcutaneous LNCaP prostate cancer xenografts were produced in athymic nude mice (Crl:NU(NCr)-Foxn1^nu, male, 6–7 wk old). SPECT/CT and biodistribution studies using ^99mTc and ^188Re radiotracers were performed once a tumor had reached an appropriate size (supplemental materials).
(§2) The biodistributions of [^99mTc]Tc-DP1-PSMAt and [^99mTc]Tc-DP2-PSMAt were assessed in male SCID/beige mice bearing DU145-PSMA+ xenograft tumors (Fig. 3). Each mouse was administered either [^99mTc]Tc-DP1-PSMAt or [^99mTc]Tc-DP2-PSMAt and euthanized at 2 h after injection (n = 5), followed by organ harvesting for ex vivo radioactivity counting.
(§3) FIGURE 3. (A) Biodistribution (2 h after injection) of SCID/beige mice bearing DU145-PSMA+ prostate cancer tumors, administered either ^99mTc or ^188Re radiotracers intravenously. To assess specificity of radiotracer uptake, additional groups of mice were also coadministered radiotracer and PMPA (Supplemental Tables 3 and 4). (B) Whole-body SPECT/CT maximum-intensity projections of SCID/beige mice bearing either DU145-PSMA+ tumors or DU145 tumors, administered either [^99mTc]Tc-DP1-PSMAt or [^99mTc]Tc-DP2-PSMAt, 2 h after injection. To inhibit uptake in DU145-PSMA+ tumors, animals were also coadministered PMPA.
(§4) To assess the specificity of each radiotracer, separate groups of animals, also bearing DU145-PSMA+ tumors, were coadministered either [^99mTc]Tc-DP1-PSMAt and PMPA or [^99mTc]Tc-DP2-PSMAt and PMPA to inhibit PSMA-mediated uptake of radiotracer (n = 5). […] For [^99mTc]Tc-DP1-PSMAt, coadministration decreased uptake to 0.91 ± 0.29 %ID/g in tumors (compared with administration of [^99mTc]Tc-DP1-PSMAt only: mean difference of 17.12 %ID/g, P = 4 × 10^−4). For [^99mTc]Tc-DP2-PSMAt, coadministration decreased uptake to 0.76 ± 0.45 %ID/g in tumors (compared with administration of [^99mTc]Tc-DP2-PSMAt only: mean difference of 28.62 %ID/g, P = 5 × 10^−4).

Another data set is described as follows: in vivo. Further details: species or system mice. Conditions: male, SCID/beige, mouse, total radioactivity. As to the method:
as §1
Additionally, groups of mice bearing non–PSMA-expressing parental DU145 tumors were also administered these ^99mTc radiotracers. For these groups, tumor uptake of [^99mTc]Tc-DP1-PSMAt decreased to 0.24 ± 0.07 %ID/g, and tumor uptake of [^99mTc]Tc-DP2-PSMAt decreased to 0.18 ± 0.07 %ID/g (Supplemental Fig. 3).

For data set [2], the system named is DU145-PSMA+ prostate cancer cells (DU145 cells transfected to express PSMA receptor). In words: Radiotracer uptake in DU145-PSMA+ prostate cancer cells. Type of data set: cell-based. Conditions: 37°C; for uptake in DU145-PSMA+ cells: 100 kBq radiotracer, 1 h incubation, percentage added radioactivity, mean ± SD, n = 3–4 biologic repeats in triplicate; for uptake in DU145-PSMA+ cells with PMPA block: coincubated with PSMA inhibitor PMPA, 1 h. Here is the method:
(§5) Solutions containing radiotracer (100 kBq in 8–12 μL of phosphate-buffered saline, >95% radiochemical purity) were added to DU145-PSMA+ or LNCaP prostate cancer cells ([22]), and the cells were incubated at 37°C for 1 h. Nonspecific uptake was determined using non–PSMA-expressing cells (DU145, PC3) or by blocking PSMA-expressing cells (DU145-PSMA+, LNCaP) with 2-phosphonomethyl pentanedioic acid (PMPA). After incubation, the cells were washed and samples collected for radioactivity counting. Uptake and localization of ^99mTc radiotracers were measured over time (15, 30, 60, and 120 min) in DU145-PSMA+ or LNCaP cells (supplemental materials).
(§6) To assess the specificity of the new radiotracers for PSMA, [^99mTc]Tc-DP1-PSMAt and [^99mTc]Tc-DP2-PSMAt (100 kBq) were each incubated with DU145-PSMA+ prostate cancer cells (DU145 cells transfected to express PSMA receptor) ([22]). After 1 h of incubation, uptake of each radiotracer was quantified. […] In LNCaP cells, uptake of [^99mTc]Tc-DP1-PSMAt and [^99mTc]Tc-DP2-PSMAt measured 3.7 ± 1.2 %AR and 3.0 ± 0.8 %AR, respectively, whereas uptake of both radiotracers in PC3 cells measured less than 0.3 %AR.
(§7) FIGURE 2. (A) Uptake of radiotracers in PSMA-positive and PSMA-negative prostate cancer cells. (B) Time course uptake and localization of ^99mTc radiotracers in DU145-PSMA cells and LNCaP cells. Data are presented as mean ± SD; n = 3–4 biologic repeats performed in triplicate.

Data set [3] has as its system LNCaP prostate cancer cells, which natively express PSMA. In words: Radiotracer uptake in LNCaP prostate cancer cells. Type of data set: cell-based. Conditions: 37°C; for uptake in LNCaP cells: 100 kBq radiotracer, 1 h incubation, percentage added radioactivity, mean ± SD, n = 3–4 biologic repeats in triplicate; for uptake in LNCaP cells with PMPA block: blocked with PMPA, 1 h. As to the method: as §5, §6, §7

Data set [4] deals with parental DU145 cells that do not express PSMA. In words: Radiotracer uptake in parental DU145 cells (non-PSMA-expressing). Type of data set: cell-based. Conditions: 100 kBq, 1 h, 37°C. As to the method: as §5, §6, §7
The test system of the next data set is PC3 cells. In words: Radiotracer uptake in PC3 cells (non-PSMA-expressing). Type of data set: cell-based. As to conditions: 100 kBq, 1 h, 37°C; cells do not express PSMA. Here is the method: as §5, §6, §7
In data set [5] the test system is DU145-PSMA+ xenograft tumors. In words: Ex vivo biodistribution in SCID/beige mice bearing DU145-PSMA+ xenograft tumors. As to conditions: for effect of PMPA coadministration on spleen uptake (in words) / effect of PMPA coadministration on tumor uptake (in words): SCID/beige mice bearing DU145-PSMA+ tumors, 2 h after injection; for radioactivity concentration in DU145-PSMA+ tumors: male, SCID/beige, mouse, in vivo, iv, 2 h. As to the method:
as §1, §2, §3, §4

A short description of data set [6]: Ex vivo biodistribution in athymic nude mice bearing LNCaP xenografts. Conditions: male, athymic nude (Crl:NU(NCr)-Foxn1^nu), mouse, total radioactivity. As to the method:
as §1
With a view to developing a molecular [^188Re]Re-labeled agent for PSMA PRRT, we further characterized the biodistribution profiles of [^188Re]Re-DP1-PSMAt and [^188Re]Re-DP2-PSMAt in male athymic nude mice bearing LNCaP xenografts (Fig. 4), which recapitulate clinical metastatic prostate cancer more closely than DU145-PSMA+ xenografts. […] In mice administered [^188Re]Re-DP1-PSMAt, LNCaP tumor uptake measured 7.0 ± 2.3 %ID/g at 2 h after injection and 2.9 ± 0.8 %ID/g at 24 h after injection. For [^188Re]Re-DP2-PSMAt, LNCaP tumor uptake measured 9.8 ± 2.8 %ID/g at 2 h after injection and 7.6 ± 4.4 %ID/g at 24 h after injection.
FIGURE 4. (A–C) Biodistribution of ^188Re in athymic nude mice bearing LNCaP prostate cancer tumors, administered either [^188Re]Re-DP1-PSMAt or [^188Re]Re-DP2-PSMAt at 2 h after injection (A), at 24 h after injection (B), and at 2 h after injection (C) with coadministration of Gelofusine. (D) Additionally, biodistributions of [^99mTc]Tc-DP1-PSMAt and [^99mTc]Tc-DP2-PSMAt at 2 h after injection were measured (Supplemental Tables 5–8). GI = gastrointestinal tract.

The mark [7] stands for this setting: SCID/beige mice bearing DU145-PSMA+ tumors, 2 h after injection, read-out: radioactivity concentration in kidneys.
Where [8] appears, read: SCID/beige mice, 2 h after injection, PMPA coadministered, n = 5, read-out: DU145-PSMA+ tumor uptake with coadministration of PMPA.
Where [9] appears, read: SCID/beige mice, 2 h after injection, PMPA coadministered, read-out: radioactivity concentration in spleen with PMPA.
Where [10] appears, read: radioactivity concentration in DU145-PSMA+ tumors.
The mark [11] stands for this setting: radioactivity concentration in spleen.
The mark [12] stands for this setting: athymic nude mice bearing LNCaP tumors, 2 h after injection, Gelofusine coadministered, read-out: kidney retention with coadministration of Gelofusine.
The mark [13] stands for this setting: athymic nude mice bearing LNCaP tumors, 2 h after injection, read-out: concentration in kidneys at 2 h.
Where [14] appears, read: athymic nude mice bearing LNCaP tumors, 24 h after injection, read-out: concentration in kidneys at 24 h.

Molecules are shown by their SMILES. Like-named read-outs stand apart in the source and are kept apart here.

`O=C(O)CC[C@H](NC(=O)N[C@@H](CCCCNC(=O)CCOCCOCCOCCOCCNC(=O)/C(=C(\C(=O)O)P(c1ccccc1)c1ccccc1)P(c1ccccc1)c1ccccc1)C(=O)O)C(=O)O` [[^99mTc]Tc-DP1-PSMAt, metal not drawn]: the tissue uptake at 2 h in data set [1] (setting [7]) is 116 ± 27.3 %ID/g; in data set [1] (setting [8]) it was 0.91 ± 0.29 %ID/g; in data set [1] (SCID/beige mice, 2 h after injection, PMPA coadministered, read-out: radioactivity concentration in kidneys with PMPA), 38 ± 2.9 %ID/g; in data set [1] (setting [9]), 0.2 ± 0.06 %ID/g; in data set [1] (setting [10]), 18 ± 3.5 %ID/g; in data set [1] (setting [11]) it was 12 ± 5.3 %ID/g. The tissue uptake at 2 h in “in vivo” came out at 0.24 ± 0.07 %ID/g.
Turning to `Cc1ccc(P(/C(C(=O)O)=C(/C(=O)NCCOCCOCCOCCOCCC(=O)NCCCC[C@H](NC(=O)N[C@@H](CCC(=O)O)C(=O)O)C(=O)O)P(c2ccc(C)cc2)c2ccc(C)cc2)c2ccc(C)cc2)cc1` [[^99mTc]Tc-DP2-PSMAt, metal not drawn], the tissue uptake at 2 h in data set [1] (setting [7]) amounted to 183 ± 23.8 %ID/g; in data set [1] (setting [8]) it was 0.76 ± 0.45 %ID/g; in data set [1] (setting [9]), 0.3 ± 0.18 %ID/g; in data set [1] (setting [10]), 29.4 ± 6.3 %ID/g; in data set [1] (setting [11]), 7.7 ± 3.4 %ID/g; in the data set “in vivo” it was 0.18 ± 0.07 %ID/g.
As to `O=C(O)CC[C@H](NC(=O)N[C@@H](CCCCNC(=O)CCOCCOCCOCCOCCNC(=O)/C(=C(\C(=O)O)P(c1ccccc1)c1ccccc1)P(c1ccccc1)c1ccccc1)C(=O)O)C(=O)O` [[^188Re]Re-DP1-PSMAt] [metal not drawn], in data set [2], the “uptake in DU145-PSMA+ cells” value amounted to 13.5 ± 2.7 %AR and the “uptake in DU145-PSMA+ cells with PMPA block” value was “could be blocked with PMPA”. In data set [3], the “uptake in LNCaP cells” value is on record as 2.8 ± 1.6 %AR and the “uptake in LNCaP cells with PMPA block” value was “could be blocked with PMPA”. Moreover, the “uptake in parental DU145 cells” value in data set [4] is “negligible uptake”. The “uptake in PC3 cells (in words)” value in the data set with PC3 cells is “negligible uptake”. Also, in data set [5], the “effect of PMPA coadministration on spleen uptake (in words)” value is listed as “significantly inhibited uptake”, the “effect of PMPA coadministration on tumor uptake (in words)” value is reported as “significantly inhibited uptake” and the “radioactivity concentration in DU145-PSMA+ tumors” value is 27.7 ± 6.4 %ID/g.
`Cc1ccc(P(/C(C(=O)O)=C(/C(=O)NCCOCCOCCOCCOCCC(=O)NCCCC[C@H](NC(=O)N[C@@H](CCC(=O)O)C(=O)O)C(=O)O)P(c2ccc(C)cc2)c2ccc(C)cc2)c2ccc(C)cc2)cc1` [[^188Re]Re-DP2-PSMAt] [metal not drawn]: in data set [2], the “uptake in DU145-PSMA+ cells” value worked out at 8.3 ±0.7 %AR and the “uptake in DU145-PSMA+ cells with PMPA block” value is reported as “could be blocked with PMPA”. In data set [3], the “uptake in LNCaP cells” value was 2.6 ± 1.6 %AR and the “uptake in LNCaP cells with PMPA block” value is “could be blocked with PMPA”. Further, in data set [4], the “uptake in parental DU145 cells” value is “negligible uptake”. Further, in the data set on PC3 cells, the “uptake in PC3 cells (in words)” value was “negligible uptake”. In data set [5], the “effect of PMPA coadministration on spleen uptake (in words)” value was “significantly inhibited uptake”, the “effect of PMPA coadministration on tumor uptake (in words)” value is on record as “significantly inhibited uptake” and the “radioactivity concentration in DU145-PSMA+ tumors” value came out at 19.2 ± 8.6 %ID/g.
As to `O=C(O)CC[C@H](NC(=O)N[C@@H](CCCCNC(=O)CCOCCOCCOCCOCCNC(=O)/C(=C(\C(=O)O)P(c1ccccc1)c1ccccc1)P(c1ccccc1)c1ccccc1)C(=O)O)C(=O)O` [[^188Re]Re-DP1-PSMAt, metal not drawn], the tissue uptake at 2 h in data set [6] was found to be 7 ± 2.3 %ID/g; in data set [6] (setting [12]), 109 ± 13.3 %ID/g; in data set [6] (setting [13]) it was 137 ± 34.6 %ID/g. Besides, the tissue uptake at 24 h came out at 2.9 ± 0.8 %ID/g in data set [6] and 29.4 ± 4.9 %ID/g in data set [6] (setting [14]).
As to `Cc1ccc(P(/C(C(=O)O)=C(/C(=O)NCCOCCOCCOCCOCCC(=O)NCCCC[C@H](NC(=O)N[C@@H](CCC(=O)O)C(=O)O)C(=O)O)P(c2ccc(C)cc2)c2ccc(C)cc2)c2ccc(C)cc2)cc1` [[^188Re]Re-DP2-PSMAt, metal not drawn], the tissue uptake at 2 h in data set [6] was 9.8 ± 2.8 %ID/g; in data set [6] (setting [12]), 128 ± 17.7 %ID/g; in data set [6] (setting [13]) it was 163 ± 31.8 %ID/g. Further, the tissue uptake at 24 h in data set [6] was 7.6 ± 4.4 %ID/g; in data set [6] (setting [14]) it was 37 ± 12.2 %ID/g.
